The first data set deals with T1, Ecm22 (Saccharomyces cerevisiae) (UniProt Q05958).
T1 sequence: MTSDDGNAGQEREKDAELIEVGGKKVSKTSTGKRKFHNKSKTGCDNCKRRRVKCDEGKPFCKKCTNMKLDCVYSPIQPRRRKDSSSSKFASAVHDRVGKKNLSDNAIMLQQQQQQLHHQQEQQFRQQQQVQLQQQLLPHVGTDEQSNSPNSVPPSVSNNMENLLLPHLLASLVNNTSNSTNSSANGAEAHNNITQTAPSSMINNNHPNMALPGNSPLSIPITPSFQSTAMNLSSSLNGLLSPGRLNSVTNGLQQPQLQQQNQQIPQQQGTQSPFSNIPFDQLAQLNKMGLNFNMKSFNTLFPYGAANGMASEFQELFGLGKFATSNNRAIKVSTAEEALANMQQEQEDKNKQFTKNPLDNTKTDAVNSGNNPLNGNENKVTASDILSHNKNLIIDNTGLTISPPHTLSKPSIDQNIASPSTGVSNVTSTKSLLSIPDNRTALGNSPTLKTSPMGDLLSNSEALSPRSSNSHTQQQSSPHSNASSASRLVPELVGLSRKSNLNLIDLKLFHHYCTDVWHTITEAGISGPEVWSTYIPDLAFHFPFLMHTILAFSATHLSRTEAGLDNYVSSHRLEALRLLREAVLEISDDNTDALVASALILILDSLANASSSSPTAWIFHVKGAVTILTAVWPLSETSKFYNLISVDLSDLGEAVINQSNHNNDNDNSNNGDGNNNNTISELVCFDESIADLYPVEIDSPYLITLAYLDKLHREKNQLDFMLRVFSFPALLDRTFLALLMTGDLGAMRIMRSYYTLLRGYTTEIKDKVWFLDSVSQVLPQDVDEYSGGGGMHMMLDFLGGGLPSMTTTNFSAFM
The following applies: 200 nM.
As to “AGGAACGA (double strand) [8-mer AGGAACGA]”, the binding signal (PBM E-score (-0.5 to 0.5)) is 0.495.

The sequence “AGGTACGA (double strand) [8-mer AGGTACGA]” displayed a binding signal (PBM E-score (-0.5 to 0.5)) of 0.495. The same measure, in the same setting: to “CGGAACGA (double strand) [8-mer CGGAACGA]” belongs 0.493; to “CTCGTACC (double strand) [8-mer CTCGTACC]”, 0.496. Regarding “CTCGTTCC (double strand) [8-mer CTCGTTCC]”, the binding signal (PBM E-score (-0.5 to 0.5)) stood at 0.496.

Consider “GGTACGAC (double strand) [8-mer GGTACGAC]”, for which the binding signal (PBM E-score (-0.5 to 0.5)) amounted to 0.495.

Another data set deals with T2, Gcr1 (Saccharomyces cerevisiae) (UniProt P07261).
T2 sequence: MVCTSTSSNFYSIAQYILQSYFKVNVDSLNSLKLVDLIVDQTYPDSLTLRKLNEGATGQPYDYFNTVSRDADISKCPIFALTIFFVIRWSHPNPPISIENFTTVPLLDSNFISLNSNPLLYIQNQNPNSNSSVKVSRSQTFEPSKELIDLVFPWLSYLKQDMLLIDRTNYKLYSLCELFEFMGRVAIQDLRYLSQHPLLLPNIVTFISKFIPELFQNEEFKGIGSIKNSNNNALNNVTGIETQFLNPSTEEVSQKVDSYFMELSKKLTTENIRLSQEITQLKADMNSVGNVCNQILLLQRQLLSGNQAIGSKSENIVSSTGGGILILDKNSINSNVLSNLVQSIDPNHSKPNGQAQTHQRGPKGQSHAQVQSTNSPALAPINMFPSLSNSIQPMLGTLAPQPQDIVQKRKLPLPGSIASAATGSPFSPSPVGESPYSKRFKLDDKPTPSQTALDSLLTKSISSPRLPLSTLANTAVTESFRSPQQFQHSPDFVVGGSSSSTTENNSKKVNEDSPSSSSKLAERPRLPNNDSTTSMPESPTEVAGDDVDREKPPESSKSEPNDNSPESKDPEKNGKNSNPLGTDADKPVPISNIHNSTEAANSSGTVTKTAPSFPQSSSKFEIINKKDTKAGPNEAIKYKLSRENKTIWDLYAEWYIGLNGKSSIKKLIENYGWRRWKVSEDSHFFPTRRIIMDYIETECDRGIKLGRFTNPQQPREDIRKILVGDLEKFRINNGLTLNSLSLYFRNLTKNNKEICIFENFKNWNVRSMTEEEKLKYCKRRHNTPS
The following applies: 100 nM.
For “AGCATCCT (double strand) [8-mer AGCATCCT]”, the binding signal (PBM E-score (-0.5 to 0.5)) turned out to be 0.465. On the same count and under the same terms, to “AGCTTCCT (double strand) [8-mer AGCTTCCT]” belongs 0.485. “AGGAAGCC (double strand) [8-mer AGGAAGCC]” showed a binding signal (PBM E-score (-0.5 to 0.5)) of 0.487.

Take “AGGATGCC (double strand) [8-mer AGGATGCC]”: the binding signal (PBM E-score (-0.5 to 0.5)) was found to be 0.47. Same read-out and setting: as for “CAGCGTCC (double strand) [8-mer CAGCGTCC]”, the figure is 0.465. “CGGCTTCC (double strand) [8-mer CGGCTTCC]” displayed a binding signal (PBM E-score (-0.5 to 0.5)) of 0.472. Regarding “GAGCTTCC (double strand) [8-mer GAGCTTCC]”, the binding signal (PBM E-score (-0.5 to 0.5)) was determined as 0.469. Still for that read-out and setting: as for “GCTTCCTA (double strand) [8-mer GCTTCCTA]”, the figure is 0.468; as for “GGAAGCCA (double strand) [8-mer GGAAGCCA]”, 0.48; as for “GGAAGCCC (double strand) [8-mer GGAAGCCC]”, 0.473. “GGAATCCA (double strand) [8-mer GGAATCCA]”: the binding signal (PBM E-score (-0.5 to 0.5)) came out at 0.473. With “GGAATCCC (double strand) [8-mer GGAATCCC]”, the binding signal (PBM E-score (-0.5 to 0.5)) came out at 0.464.

Take “GGATTCCA (double strand) [8-mer GGATTCCA]”: the binding signal (PBM E-score (-0.5 to 0.5)) amounted to 0.476. “GGCATCCA (double strand) [8-mer GGCATCCA]”: the binding signal (PBM E-score (-0.5 to 0.5)) stood at 0.469. Same read-out and setting: to “GGCTTCCA (double strand) [8-mer GGCTTCCA]” belongs 0.483.

In the next data set the target is T3, Hmlalpha2 (Saccharomyces cerevisiae) (UniProt P0CY09).
T3 sequence: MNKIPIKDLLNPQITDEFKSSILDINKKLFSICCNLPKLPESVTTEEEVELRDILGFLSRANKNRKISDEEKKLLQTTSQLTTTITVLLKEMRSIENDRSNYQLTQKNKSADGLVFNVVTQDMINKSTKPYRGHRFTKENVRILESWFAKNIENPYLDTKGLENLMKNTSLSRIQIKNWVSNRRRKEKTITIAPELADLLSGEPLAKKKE
The following applies: 200 nM.
Regarding “AATTACAT (double strand) [8-mer AATTACAT]”, the binding signal (PBM E-score (-0.5 to 0.5)) came to 0.489. Still for that read-out and setting: as for “ACATGTAA (double strand) [8-mer ACATGTAA]”, the figure is 0.488; as for “ATTACACA (double strand) [8-mer ATTACACA]”, 0.492; as for “ATTACACG (double strand) [8-mer ATTACACG]”, 0.495. For “ATTACATA (double strand) [8-mer ATTACATA]”, the binding signal (PBM E-score (-0.5 to 0.5)) stood at 0.488. The same measure, in the same setting: as for “ATTACATG (double strand) [8-mer ATTACATG]”, the figure is 0.495. Still for that read-out and setting: as for “CATGTAAA (double strand) [8-mer CATGTAAA]”, the figure is 0.491; as for “CATGTTAA (double strand) [8-mer CATGTTAA]”, 0.489; as for “CCATGTAA (double strand) [8-mer CCATGTAA]”, 0.486. The same measure, in the same setting: to “CCGTGTAA (double strand) [8-mer CCGTGTAA]” belongs 0.486; to “CGTGTAAA (double strand) [8-mer CGTGTAAA]”, 0.493. Take “CTTTACAC (double strand) [8-mer CTTTACAC]”: the binding signal (PBM E-score (-0.5 to 0.5)) stood at 0.489. On to “TATGTAAA (double strand) [8-mer TATGTAAA]”, for which the binding signal (PBM E-score (-0.5 to 0.5)) amounted to 0.49. For the sequence “TCGTGTAA (double strand) [8-mer TCGTGTAA]”, the binding signal (PBM E-score (-0.5 to 0.5)) stood at 0.49. The same measure, in the same setting: to “TGTGTAAA (double strand) [8-mer TGTGTAAA]” belongs 0.489.

A further data set has as its target T4, Mot3 (Saccharomyces cerevisiae) (UniProt P54785).
T4 sequence: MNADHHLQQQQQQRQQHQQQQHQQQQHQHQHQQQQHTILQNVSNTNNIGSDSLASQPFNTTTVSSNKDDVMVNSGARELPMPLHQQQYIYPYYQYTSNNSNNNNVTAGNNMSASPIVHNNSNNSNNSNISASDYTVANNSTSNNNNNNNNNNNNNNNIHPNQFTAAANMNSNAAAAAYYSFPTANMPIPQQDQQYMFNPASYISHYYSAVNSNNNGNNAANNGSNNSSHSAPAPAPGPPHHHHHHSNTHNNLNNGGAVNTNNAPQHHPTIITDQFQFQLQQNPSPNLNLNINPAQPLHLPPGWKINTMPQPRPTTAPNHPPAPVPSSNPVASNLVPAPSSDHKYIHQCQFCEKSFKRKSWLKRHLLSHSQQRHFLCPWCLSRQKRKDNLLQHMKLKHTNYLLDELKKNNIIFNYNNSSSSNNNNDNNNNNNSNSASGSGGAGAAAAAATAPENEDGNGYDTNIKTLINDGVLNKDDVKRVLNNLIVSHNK
The following applies: 200 nM.
“AAAGGCAC (double strand) [8-mer AAAGGCAC]” showed a binding signal (PBM E-score (-0.5 to 0.5)) of 0.495. On the same count and under the same terms, to “AAGGCACC (double strand) [8-mer AAGGCACC]” belongs 0.493.

On to “AAGGCACG (double strand) [8-mer AAGGCACG]”, for which the binding signal (PBM E-score (-0.5 to 0.5)) was 0.496. Still for that read-out and setting: to “ACAGGCAC (double strand) [8-mer ACAGGCAC]” belongs 0.495; to “ACGTGCCT (double strand) [8-mer ACGTGCCT]”, 0.494; to “AGGCACGC (double strand) [8-mer AGGCACGC]”, 0.496.

In turn, “CAGGCACA (double strand) [8-mer CAGGCACA]” registered a binding signal (PBM E-score (-0.5 to 0.5)) of 0.493. Take “CAGGCACC (double strand) [8-mer CAGGCACC]”: the binding signal (PBM E-score (-0.5 to 0.5)) was found to be 0.496. Still for that read-out and setting: as for “CAGGCACG (double strand) [8-mer CAGGCACG]”, the figure is 0.496. The same measure, in the same setting: to “CGTGCCTA (double strand) [8-mer CGTGCCTA]” belongs 0.495. Same read-out and setting: as for “GAAGGCAC (double strand) [8-mer GAAGGCAC]”, the figure is 0.495; as for “GCAGGCAA (double strand) [8-mer GCAGGCAA]”, 0.493. On to “GCAGGCAC (double strand) [8-mer GCAGGCAC]”, for which the binding signal (PBM E-score (-0.5 to 0.5)) stood at 0.497. Still for that read-out and setting: as for “GTAGGCAC (double strand) [8-mer GTAGGCAC]”, the figure is 0.495; as for “GTGCCTGA (double strand) [8-mer GTGCCTGA]”, 0.493.

The target in the next data set is T5, Msn1 (Saccharomyces cerevisiae) (UniProt P22148).
T5 sequence: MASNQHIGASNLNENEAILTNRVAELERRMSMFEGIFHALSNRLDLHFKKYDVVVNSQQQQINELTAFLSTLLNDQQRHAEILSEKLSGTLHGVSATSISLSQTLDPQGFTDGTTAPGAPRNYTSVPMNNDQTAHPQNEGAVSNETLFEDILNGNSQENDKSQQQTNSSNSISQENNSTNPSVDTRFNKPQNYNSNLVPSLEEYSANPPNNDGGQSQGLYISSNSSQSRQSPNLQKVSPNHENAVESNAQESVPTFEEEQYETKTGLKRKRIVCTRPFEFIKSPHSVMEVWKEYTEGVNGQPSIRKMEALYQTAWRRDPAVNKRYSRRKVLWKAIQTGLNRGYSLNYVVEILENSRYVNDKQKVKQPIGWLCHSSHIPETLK
The following applies: 200 nM.
Regarding “AAAATGTC (double strand) [8-mer AAAATGTC]”, the binding signal (PBM E-score (-0.5 to 0.5)) worked out at 0.491.

The values above are taken from PMC3334620.
